B1: Δ1–36 REEP5-EYFP (domain or fragment)
chain: not shown
notes: REEP5, human (NM_005669.4), lacking residues 1-36; source: C2C12 myoblasts, transfected, in lysate
B2: REEP5-V5-6xHis (natural protein)
chain: not shown
notes: REEP5 was fused to a V5 tag followed by a 6xHis tag; source: HEK293, transfected, in lysate
B3: CnVA-tagged (StrepII-6xHis, 3xFlag) REEP5 (natural protein)
chain: not shown
notes: Receptor expression-enhancing protein 5 (REEP5), human, subcloned from NM_005669.4 into pLD-puro-CnVA; also called CnVA-REEP5; source: HEK293, transfected, in lysate; nickel-His purification
B4: REEP5-EYFP (natural protein)
chain: not shown
notes: Receptor expression-enhancing protein 5 (REEP5), human (NM_005669.4), parent of the EYFP tagged truncation mutants; source: C2C12 myoblasts, transfected, in lysate
B5: endogenous REEP5 (HEK293) (natural protein)
chain: not shown
notes: Receptor expression-enhancing protein 5 (REEP5), endogenous in HEK293 cells; source: endogenous, HEK293 lysate

Legend:
[1] = biological target: the molecule itself; assay: immunoblot of oligomer bands after SDS-PAGE; C2C12 myoblasts transfected with EYFP tagged REEP5 and truncation mutants; SDS-resistant dimers
[2] = biological target: the molecule itself; assay: immunoblot of oligomer bands after SDS-PAGE; lysates and nickel-His eluate of transfected HEK293 cells; increasing DTT lowered the dimer band

| Protein | stoichiometry N [1] | stoichiometry N [2] |
| --- | --- | --- |
| B1 | 2 |  |
| B2 |  | 2 |
| B3 |  | 2 |
| B4 | 2 |  |
| B5 |  | 2 |

Source: PMC7031342, “REEP5 depletion causes sarco-endoplasmic reticulum vacuolization and cardiac functional defects” (Nature Communications, 2020)
